Two molecules from publication PMC3792970, “A Single Nucleotide Polymorphism Associated with Hepatitis C Virus Infections Located in the Distal Region of the IL28B Promoter Influences NF-κB-Mediated Gene Transcription” can be followed below.

The target of series [1] is T1, NF-kB p50 (UniProt P19838 42-367). The series can be described thus: EMSA; 2 ug p50; diffuse shift; EMSA: 1X BB stated as 50 mM Tris pH 8.0, 250 mM KCl, 2.5 mM EDTA, 0.5% Triton X-100, 62.5% glycerol, 1 mM DTT; 1 ug poly(dI:dC), 10 ul, room temperature 30 min, 4% native PAGE at 4 C; pull-down: 1X BB, poly(dI:dC), RT 2 h. As to conditions: protein: recombinant; chain copies: 2; label: 5'-32P on forward strand (EMSA); biotin (pull-down); blunt. On the technique in general: Mobility shift assays separate free from complexed probe on a gel.

Series [2] concerns the target T1, NF-kB p50. The series can be described thus: EMSA; 2 ug p50; distinct bands; EMSA: 1X BB stated as 50 mM Tris pH 8.0, 250 mM KCl, 2.5 mM EDTA, 0.5% Triton X-100, 62.5% glycerol, 1 mM DTT; 1 ug poly(dI:dC), 10 ul, room temperature 30 min, 4% native PAGE at 4 C; pull-down: 1X BB, poly(dI:dC), RT 2 h. As to conditions: protein: recombinant; chain copies: 2; label: 5'-32P on forward strand (EMSA); biotin (pull-down); blunt.

T1 sequence (P19838 42-367): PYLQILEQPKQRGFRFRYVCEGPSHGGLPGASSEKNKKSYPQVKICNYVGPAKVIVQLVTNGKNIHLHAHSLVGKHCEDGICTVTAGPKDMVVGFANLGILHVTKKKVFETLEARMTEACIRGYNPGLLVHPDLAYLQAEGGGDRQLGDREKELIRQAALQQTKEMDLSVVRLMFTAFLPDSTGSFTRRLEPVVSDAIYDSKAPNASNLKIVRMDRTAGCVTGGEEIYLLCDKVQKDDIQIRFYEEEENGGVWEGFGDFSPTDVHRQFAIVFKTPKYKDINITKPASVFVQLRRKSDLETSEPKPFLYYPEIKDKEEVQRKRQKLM

B1: G-T (NF813G-T) (dsDNA)
DNA 1: CCCCTGCCCTCAGTGGGCAGCCTCTGCATTCCCTCAGCTCCCTTTCTCTCTGTGA
DNA 2: TCACAGAGAGAAAGGGAGCTGAGGGAATGCAGAGGCTGCCCACTGAGGGCAGGGG
As for B1, the binding result with NF-kB p50 [1] is recorded as “binds”.

B2: C-C (NFC-C849) (dsDNA)
DNA 1: CCCCTGCCCTCAGTGGGCAGCCTCTCCATCCCCTCAGCTCCCTTTCTCTCTGTGA
DNA 2: TCACAGAGAGAAAGGGAGCTGAGGGGATGGAGAGGCTGCCCACTGAGGGCAGGGG
In the case of B2, the binding result with NF-kB p50 [2] was “binds”.
